Reference: ChEMBL document CHEMBL1137660, “Molecular and biochemical characterization of the chromosome-encoded class A beta-lactamase BCL-1 from Bacillus clausii” (Antimicrob Agents Chemother, 2007)

Columns and labels:
[1] = substrate: CC1(C)S[C@@H]2[C@H](NC(=O)[C@H](C(=O)O)c3ccsc3)C(=O)N2[C@H]1C(=O)O; details: Shouchella clausii; NR
[2] = substrate: CC1(C)S[C@@H]2[C@H](NC(=O)[C@H](N)c3ccc(O)cc3)C(=O)N2[C@H]1C(=O)O; details: Shouchella clausii; NR
[3] = substrate: CC1(C)S[C@@H]2[C@H](NC(=O)Cc3ccccc3)C(=O)N2[C@H]1C(=O)O; details: Shouchella clausii; NR
[4] = substrate: CO/N=C(\C(=O)N[C@@H]1C(=O)N2C(C(=O)[O-])=C(C[N+]3(C)CCCC3)CS[C@H]12)c1csc(N)n1; details: Shouchella clausii; NR
[5] = substrate: CO[C@@]1(NC(=O)C(C(=O)O)c2ccc(O)cc2)C(=O)N2C(C(=O)O)=C(CSc3nnnn3C)CO[C@@H]21; details: Shouchella clausii; NR
[6] = substrate: CO/N=C(\C(=O)N[C@@H]1C(=O)N2C(C(=O)O)=C(COC(N)=O)CS[C@H]12)c1ccco1; details: Shouchella clausii; NR
[7] = substrate: CC(C)(O/N=C(\C(=O)N[C@@H]1C(=O)N2C(C(=O)[O-])=C(C[n+]3ccccc3)CS[C@H]12)c1csc(N)n1)C(=O)O; details: Shouchella clausii; NR
[8] = substrate: CO[C@@]1(NC(=O)Cc2cccs2)C(=O)N2C(C(=O)O)=C(COC(N)=O)CS[C@@H]21; details: Shouchella clausii; NR
[9] = substrate: CC(=O)OCC1=C(C(=O)O)N2C(=O)[C@@H](NC(=O)Cc3cccs3)[C@H]2SC1; details: Shouchella clausii; NR
[10] = substrate: CO/N=C(\C(=O)N[C@@H]1C(=O)N2C(C(=O)O)=C(COC(C)=O)CS[C@H]12)c1csc(N)n1; details: Shouchella clausii; NR
[11] = substrate: CCN1CCN(C(=O)N[C@@H](C(=O)N[C@@H]2C(=O)N3[C@@H]2SC(C)(C)[C@@H]3C(=O)O)c2ccccc2)C(=O)C1=O; details: Shouchella clausii; NR
[12] = substrate: CO/N=C(\C(=O)N[C@@H]1C(=O)N2C(C(=O)O)=C(CSc3nc(=O)c(O)nn3C)CS[C@H]12)c1csc(N)n1; details: Shouchella clausii; NR
[13] = substrate: O=C(Cc1cccs1)N[C@@H]1C(=O)N2C(C(=O)[O-])=C(C[n+]3ccccc3)CS[C@H]12; details: Shouchella clausii; NR
[14] = substrate: CO/N=C(\C(=O)N[C@@H]1C(=O)N2C(C(=O)[O-])=C(C[n+]3cccc4c3CCC4)CS[C@H]12)c1csc(N)n1; details: Shouchella clausii; NR
[15] = substrate: C[C@H]1[C@H](NC(=O)/C(=N\OC(C)(C)C(=O)O)c2csc(N)n2)C(=O)N1S(=O)(=O)O; details: Shouchella clausii; NR
[16] = substrate: CC1(C)S[C@@H]2[C@H](NC(=O)[C@H](C(=O)O)c3ccsc3)C(=O)N2[C@H]1C(=O)O; details: Shouchella clausii; NR; remark: listed apart in the source
[17] = substrate: CC1(C)S[C@@H]2[C@H](NC(=O)[C@H](N)c3ccc(O)cc3)C(=O)N2[C@H]1C(=O)O; details: Shouchella clausii; NR; remark: listed apart in the source
[18] = substrate: CC1(C)S[C@@H]2[C@H](NC(=O)Cc3ccccc3)C(=O)N2[C@H]1C(=O)O; details: Shouchella clausii; NR; remark: listed apart in the source
[19] = substrate: CO/N=C(\C(=O)N[C@@H]1C(=O)N2C(C(=O)[O-])=C(C[N+]3(C)CCCC3)CS[C@H]12)c1csc(N)n1; details: Shouchella clausii; NR; remark: listed apart in the source
[20] = substrate: CO/N=C(\C(=O)N[C@@H]1C(=O)N2C(C(=O)O)=C(COC(N)=O)CS[C@H]12)c1ccco1; details: Shouchella clausii; NR; remark: listed apart in the source
[21] = substrate: CC(C)(O/N=C(\C(=O)N[C@@H]1C(=O)N2C(C(=O)[O-])=C(C[n+]3ccccc3)CS[C@H]12)c1csc(N)n1)C(=O)O; details: Shouchella clausii; NR; remark: listed apart in the source
[22] = substrate: CC(=O)OCC1=C(C(=O)O)N2C(=O)[C@@H](NC(=O)Cc3cccs3)[C@H]2SC1; details: Shouchella clausii; NR; remark: listed apart in the source
[23] = substrate: CO/N=C(\C(=O)N[C@@H]1C(=O)N2C(C(=O)O)=C(COC(C)=O)CS[C@H]12)c1csc(N)n1; details: Shouchella clausii; NR; remark: listed apart in the source
[24] = substrate: CCN1CCN(C(=O)N[C@@H](C(=O)N[C@@H]2C(=O)N3[C@@H]2SC(C)(C)[C@@H]3C(=O)O)c2ccccc2)C(=O)C1=O; details: Shouchella clausii; NR; remark: listed apart in the source
[25] = substrate: CO/N=C(\C(=O)N[C@@H]1C(=O)N2C(C(=O)O)=C(CSc3nc(=O)c(O)nn3C)CS[C@H]12)c1csc(N)n1; details: Shouchella clausii; NR; remark: listed apart in the source
[26] = substrate: O=C(Cc1cccs1)N[C@@H]1C(=O)N2C(C(=O)[O-])=C(C[n+]3ccccc3)CS[C@H]12; details: Shouchella clausii; NR; remark: listed apart in the source
[27] = substrate: CO/N=C(\C(=O)N[C@@H]1C(=O)N2C(C(=O)[O-])=C(C[n+]3cccc4c3CCC4)CS[C@H]12)c1csc(N)n1; details: Shouchella clausii; NR; remark: listed apart in the source
[28] = substrate: CO/N=C(\C(=O)N[C@@H]1C(=O)N2C(C(=O)[O-])=C(C[N+]3(C)CCCC3)CS[C@H]12)c1csc(N)n1; assay: (§1) Activity of Bacillus anthracis beta-lactamase Bla1
[29] = substrate: CC(C)(O/N=C(\C(=O)N[C@@H]1C(=O)N2C(C(=O)[O-])=C(C[n+]3ccccc3)CS[C@H]12)c1csc(N)n1)C(=O)O; assay: as §1
[30] = substrate: CO/N=C(\C(=O)N[C@@H]1C(=O)N2C(C(=O)O)=C(COC(C)=O)CS[C@H]12)c1csc(N)n1; assay: as §1
[31] = substrate: O=C(Cc1cccs1)N[C@@H]1C(=O)N2C(C(=O)[O-])=C(C[n+]3ccccc3)CS[C@H]12; assay: Ratio of Kcat to Km for Bacillus anthracis beta-lactamase Bla1
[32] = substrate: CC1(C)S[C@@H]2[C@H](NC(=O)Cc3ccccc3)C(=O)N2[C@H]1C(=O)O; assay: (§2) Activity of Bacillus cereus beta-lactamase BcI
[33] = substrate: CC(=O)OCC1=C(C(=O)O)N2C(=O)[C@@H](NC(=O)CCC[C@@H](N)C(=O)O)[C@H]2SC1; assay: as §2

B1: Beta-lactamase (Bacillus clausii), A8RR46 (protein)
chain: MKRSFFMLKTKITSSILVGACLLIGCSNGNEQPVSNEPEPEESVETGEAVFKALEEEYAARLGVFALDTGTGQTVSYRSDERFTYASAHKPLAVAVLLQQKSIEELEQLITYSADDLVNYNPITENHVETGMTLRELSDASIRYSDNTAANFIFDEIGGPEGFKEGLRAIGDTVTEPERIEPELNHVEPGEIQDTSTPEALAKSLQEFALGEALPADKQELLIDWLIGNTTGDALIRAGVPEGWEVGDKTGAGSYGTRNDIAILWPPEKEPIILAVLSSKDEKDAEYDDELIAKATEEVINLLAQTE
Protein B1 has a Km [1] of 6 µM, a kcat [1] of 5 s⁻¹ and a Km [2] of 22 µM. The kcat [2] was 85 s⁻¹, the Km [3] was 12 µM and the kcat [3] was 97 s⁻¹. The Km [4] was > 1000 µM, the kcat [4] was > 40 s⁻¹ and the kcat [5] was < 0.01 s⁻¹. The Km [6] was 105 µM, the kcat [6] was 15 s⁻¹ and the Km [7] was 1000 µM. The kcat [7] was > 3.3 s⁻¹, the Km [8] was < 0.01 µM and the kcat [8] was < 0.01 s⁻¹. The Km [9] was 15 µM, the kcat [9] was 22 s⁻¹ and the Km [10] was 790 µM. For the same protein, the kcat [10] was 22 s⁻¹, the Km [11] was 21 µM and the kcat [11] was 38 s⁻¹. It also gave a Km [12] of 950 µM, a kcat [12] of 30 s⁻¹ and a Km [13] of 45 µM. The kcat [13] was 115 s⁻¹, the Km [14] was 136 µM and the kcat [14] was 95 s⁻¹. For the same protein, the kcat [15] was < 0.3 s⁻¹, the kcat/Km [16] was 1e+06 M⁻¹ s⁻¹ and the kcat/Km [17] was 4e+06 M⁻¹ s⁻¹. The kcat/Km [18] was 8e+06 M⁻¹ s⁻¹, the kcat/Km [19] was < 40000 M⁻¹ s⁻¹ and the kcat/Km [20] was 100000 M⁻¹ s⁻¹. For the same protein, the kcat/Km [21] was < 3000 M⁻¹ s⁻¹, the kcat/Km [22] was 1.5e+06 M⁻¹ s⁻¹ and the kcat/Km [23] was 30000 M⁻¹ s⁻¹. For the same protein, the kcat/Km [24] was 2e+06 M⁻¹ s⁻¹, the kcat/Km [25] was 30000 M⁻¹ s⁻¹ and the kcat/Km [26] was 2.5e+06 M⁻¹ s⁻¹. It also gave a kcat/Km [27] of 1e+06 M⁻¹ s⁻¹.

B2: Beta-lactamase (Bacillus anthracis), Q93T42 (protein)
chain: MIVLKNKKMLKIGMCVGILGLSITSLVTFTGGALQVEAKEKTGQVKHKNQATHKEFSQLEKKFDARLGVYAIDTGTNQTIAYRPNERFAFASTYKALAAGVLLQQNSTKKLDEVITYTKEDLVDYSPVTEKHVDTGMTLGEIAEAAVRYSDNTAGNILFHKIGGPKGYEKALRQMGDRVTMSDRFETELNEAIPGDIRDTSTAKAIATNLKAFTAGNALPNHKRNILTKWMKGNATGDKLIRAGVPTNWVVADKSGAGSYGTRNDIAIVWPPNRAPIIIAILSSKDEKGATYDNQLIAEAAEVIVNAFR
B2 was tested, and the kcat [28] was < 0.2 s⁻¹, the kcat [29] was < 0.2 s⁻¹ and the kcat [30] was < 0.2 s⁻¹. It also gave a kcat/Km [31] of 1.1e+06 M⁻¹ s⁻¹.

B3: Beta-lactamase 1 (Bacillus cereus), P00809 (protein)
chain: MILKNKRMLKIGICVGILGLSITSLEAFTGESLQVEAKEKTGQVKHKNQATHKEFSQLEKKFDARLGVYAIDTGTNQTISYRPNERFAFASTYKALAAGVLLQQNSIDSLNEVITYTKEDLVDYSPVTEKHVDTGMKLGEIAEAAVRSSDNTAGNILFNKIGGPKGYEKALRHMGDRITMSNRFETELNEAIPGDIRDTSTAKAIATNLKAFTVGNALPAEKRKILTEWMKGNATGDKLIRAGIPTDWVVGDKSGAGSYGTRNDIAVVWPPNSAPIIVLISSKDEKEAIYNDQLIAEATKVIVKGS
With B3 the Km [32] was 65 µM, the kcat [32] was 2200 s⁻¹ and the kcat [33] was 0.2 s⁻¹.
